Residue numbers refer to the chain shown, from its start.
B1: Bispecific <Tweak-IL-17> #5 antibody (bispecific antibody, human IgG1, kappa)
heavy: not shown
light: DIQMTQSPSSVSASVGDRVTITCQASQNIYSNLAWYQQKPGKAPKLLIYTASYLASGVPSRFSGSGSGTDYTLTISSLQPEDFATYYCQTAYYNSRPDTVAFGGGTKVEIKRTVAAPSVFIFPPSDEQLKSGTASVVCLLNNFYPREAKVQWKVDNALQSGNSQESVTEQDSKDSTYSLSSTLTLSKADYEKHKVYACEVTHQGLSSPVTKSFNRGEC
B2: Bispecific <Tweak-IL-17> #21 antibody (bispecific antibody, human IgG4 S228P, kappa)
heavy 1: EVQLVESGGGLVQPGGSLRLSCAASGFSLDSYGVHWVRQAPGKGLEWVSVIWSDGTTTYNSALKSRFTISRDNSKNTLYLQMNSLRAEDTAVYYCARDTHYRLYYYAMDYWGQGTTVTVSSASTKGPSVFPLAPCSRSTSESTAALGCLVKDYFPEPVTVSWNSGALTSGVHTFPAVLQSSGLYSLSSVVTVPSSSLGTKTYTCNVDHKPSNTKVDKRVESKYGPPCPPCPAPEFEGGPSVFLFPPKPKDTLMISRTPEVTCVVVDVSQEDPEVQFNWYVDGVEVHNAKTKPREEQFNSTYRVVSVLTVLHQDWLNGKEYKCKVSNKGLPSSIEKTISKAKGQPREPQVCTLPPSQEEMTKNQVSLSCAVKGFYPSDIAVEWESNGQPENNYKTTPPVLDSDGSFFLVSRLTVDKSRWQEGNVFSCSVMHEALHNHYTQKSLSLSLGK
heavy 2: not shown
light: DIVMTQSPLSLPVTPGEPASISCRSSQSLVHSNGDTYFHWYLQKPGQSPQLLIYKVSNRFSGVPDRFSGSGSGTDFTLKISRVEAEDVGVYYCSQTTHAPFTFGQGTKLEIKRTVAAPSVFIFPPSDEQLKSGTASVVCLLNNFYPREAKVQWKVDNALQSGNSQESVTEQDSKDSTYSLSSTLTLSKADYEKHKVYACEVTHQGLSSPVTKSFNRGEC
B3: Humanized <TWEAK> 305- antibody 28 (antibody, V domains shown)
VH: EVQLLESGGGLVQPGGSLTLSCAASGFDFSTYYMSWVRQAPGKGLEWVSTVYVRQGTTYYASWLNGRFTISRDNSKNTLYLQMNSLRAEDTAVYYCAKGGYNYDDAFVIWGQGTLVTVSS
VL: DIQMTQSPSSVSASVGDRVTITCQASQNIYSNLAWYQQKPGKAPKLLIYTASYLASGVPSRFSGSGSGTDYTLTISSLQPEDFATYYCQTAYYNSRPDTVAFGGGTKVEIK
B4: Humanized <TWEAK> 305- antibody 34 (antibody, V domains shown)
VH: B3 VH with T19R
VL: B3 VL with D1A, Q3R, V11F, V15T, S77C, P80S
B5: Humanized <TWEAK> 305- antibody 31 (antibody, V domains shown)
VH: B3 VH
VL: B3 VL with D1A, Q3R, V11F, V15T, S77C, P80S
B6: Humanized <TWEAK> 305- antibody 33 (antibody, V domains shown)
VH: QVQLVQSGAEVKKPGSSVKVSCKASGFDFSTYYMSWVRQAPGQGLEWMGTVYVRQGTTYYASWLNGRVTITADESTSTAYMELSSLRSEDTAVYYCARGGYNYDDAFVIWGQGTLVTVSS
VL: B3 VL with D1A, Q3R, V11F, V15T, S77C, P80S
B7: Humanized <TWEAK> 305- antibody 30 (antibody, V domains shown)
VH: B3 VH with T19R, R87T
VL: B3 VL with Y71F
B8: Humanized <TWEAK> 305- antibody 32 (antibody, V domains shown)
VH: B3 VH with T19R, Y80D
VL: B3 VL with S10T, V11L, D70E, Y71F, E81D
B9: Humanized <TWEAK> 305- antibody 29 (antibody, V domains shown)
VH: B3 VH with T19R, Y80D
VL: B3 VL
B10: <TWEAK> 305 (rabbit) (antibody, V domains shown)
VH: QEQLVESGGGLVQPGGSLTLSCKASGFDFSTYYMSWVRQAPGKGLEWIGTVYVRQGTTYYASWLNGRFTISSDNAQNTVDLKMNSLTAADTATYFCAKGGYNYDDAFVIWGPGTLVTVSF
VL: AIEMTQTPFSVSAAVGGTVTINCQASQNIYSNLAWYQQKPGQPPKLLMYTASYLASGVPSRFKGSGSRTEYTLTISGVQCADAATYYCQTAYYNSRPDTVAFGGGTEVVVK
notes: Rabbit parent antibody

What follows are binders tested against recombinant human IL-17 (Peprotech #200-17) (human, UniProt Q16552 20-155) (assay: cell-based or functional assay).
Sequence of recombinant human IL-17 (Peprotech #200-17) (Q16552 20-155 limits assumed): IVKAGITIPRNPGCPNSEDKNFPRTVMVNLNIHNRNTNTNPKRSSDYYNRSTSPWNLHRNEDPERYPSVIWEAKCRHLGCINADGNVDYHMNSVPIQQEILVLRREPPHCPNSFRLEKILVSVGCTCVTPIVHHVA

First: B1
Second: B2
The “IL-6 IC50 [nM] per valency (IL-17 induced cytokine production, HFLS-RA)” value of the first is 2.1-fold lower: 1.32 nM for the first, 2.71 nM for the second.

Compared with B1, B2 is 1.5-fold higher in “IL-8 IC50 [nM] per valency (IL-17 induced cytokine production, HFLS-RA)” value: 1.12 nM for the first, 1.71 nM for the second.

The binders below were run against T1, Human recombinant soluble TWEAK (Example 6) (human, UniProt O43508 99-249, limits assumed) (assay: cell-based or functional assay).
T1 sequence: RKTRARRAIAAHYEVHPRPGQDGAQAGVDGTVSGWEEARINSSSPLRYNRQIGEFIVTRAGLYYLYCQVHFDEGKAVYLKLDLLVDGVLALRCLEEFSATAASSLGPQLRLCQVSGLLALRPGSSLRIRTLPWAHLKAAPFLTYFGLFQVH

Going from B3 to B4, the “Inhibition of IL8-Secretion [ng/ml] (A375 cells)” value (shortened to “Inhibition of IL8-Secretion”) falls from 165 ng/mL to 24 ng/mL (6.9-fold).

Compared with B5, B6 is 3.6-fold lower in “Inhibition of IL8-Secretion” value: 94 ng/mL for the first, 26 ng/mL for the second.

First: B7
Second: B8
The “Inhibition of IL8-Secretion” value of the first is 1.5-fold higher: 207 ng/mL for the first, 134 ng/mL for the second.

For B9, the “Inhibition of IL8-Secretion” value was 78 ng/mL.

These binders were tested against T2, human Flag-tagged soluble TWEAK (amino acids 106-249) (human, UniProt O43508 106-249) (assay: receptor interaction ELISA: Flag-TWEAK 2.5 ng/ml preincubated with antibody, then on coated human Fn14:Fc (competitor m21)).
T2 construct: The sentence gives amino acids 106-249 without naming the entry; also called Human TWEAK; not shown: Flag tag
T2 sequence: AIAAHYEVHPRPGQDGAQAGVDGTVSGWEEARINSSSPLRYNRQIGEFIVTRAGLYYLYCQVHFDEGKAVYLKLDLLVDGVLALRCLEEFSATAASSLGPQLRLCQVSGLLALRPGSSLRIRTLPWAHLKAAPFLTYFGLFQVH
Protocol: (§1) 96-well Maxisorp® plates (Nunc) were coated with 100 μl 1 μg/ml human Fn14:Fc (extracellular domain of human Fn14 (amino acids 1-75 of SEQ ID NO: 98) fused to Fc portion of human IgG1) in PBS per well for 1.5 h at room temperature and blocked with a solution of 5% FBS in PBS for 30 minutes at room temperature under shaking. […] After washing the Fn14-coated plate once with wash buffer (0.1% Tween® 20 in PBS), 100 μl of the TWEAK-antibody solution were transferred to each well and the plate was incubated for 1 h at room temperature, followed by four washes with wash buffer. Wells were filled with 100 μl of anti-FLAG-HRP detection antibody, diluted 1:5000 in blocking buffer, and incubated for 1 h at room temperature. After four more wash steps, the signal was developed by addition of 100 μl 3,3,5,5-Tetramethylbenzidine (TMB) solution for approximately ten minutes. The reaction was stopped by adding 100 μl of 1 N HCl, and absorbance measured at 450 nm (reference wavelength 620 nm).

With B10 the IC50 was 2.5 ng/mL.

These binders were tested against T3, Biotinylated human soluble TWEAK (amino acids 99-249 of SEQ ID NO: 68) (human, UniProt O43508 99-249, biotinylated) (assay: SPR (Biacore), biotinylated soluble TWEAK on streptavidin chip, 37 C).
T3 construct: also called Human TWEAK
T3 sequence: T1 sequence

Going from B3 to B4, the “Biacore t/2 diss. [min] 37° C. human” value rises from 115 min to 185 min (1.6-fold).

Going from B5 to B6, the “Biacore t/2 diss. [min] 37° C. human” value falls from 151 min to 99 min (1.5-fold).

B7 and B8 are within 1.5-fold of each other in “Biacore t/2 diss. [min] 37° C. human” value: 45 min for the first, 50 min for the second.

In the case of B9, the “Biacore t/2 diss. [min] 37° C. human” value is reported as 195 min.

What follows are binders tested against T3, Biotinylated human soluble TWEAK (amino …) (assay: SPR (Biacore), biotinylated soluble TWEAK on streptavidin chip, 25 C).
Protocol: A Biacore 2000 instrument was used with a Biacore streptavidin coated sensor mounted into the system. The system buffer HBS-ET (10 mM HEPES pH 7.4, 150 mM NaCl, 1 mM EDTA, 0.05% Tween® 20) was used at a flow rate of 100 μl/min. The sample buffer was the system buffer. Biotinylated human soluble TWEAK (amino acids 99-249 of SEQ ID NO: 68) and biotinylated murine soluble TWEAK (amino acids 81-225 of SEQ ID NO: 69) was immobilized on different flow cells on the SA sensor at 150 RU each. The flow cell FC1 was used as a blank reference cell. Each antibody was injected into the system as an analyte at 100 nM at 100 μl/min for 2 min association time. The dissociation of the immunecomplexes were monitored for 5 min. The sensor surface was washed with HBS-ET for 10 seconds and regenerated using 2×2 minutes injections with 10 mM glycine pH 2.25. This procedure was done at 25° C. The kinetically rate limiting step of the complex dissociation phase in the interval [240 s-300 s] was taken to calculate the dissociation rate kd [1/s] (Biacore Evaluation Software 4.0). According to the equation t1/2 diss=ln(2)/(60×kd), the half-life of the immunocomplexes in minutes was calculated.

First: B3
Second: B4
The “Biacore t/2 diss. [min] 25° C. human” value of the first is 1.8-fold lower: 87 min for the first, 158 min for the second.

B5 and B6 are within 1.5-fold of each other in “Biacore t/2 diss. [min] 25° C. human” value: 115 min for the first, 127 min for the second.

B7 and B8 are within 1.5-fold of each other in “Biacore t/2 diss. [min] 25° C. human” value: 50 min for the first, 67 min for the second.

B9 was tested, and the “Biacore t/2 diss. [min] 25° C. human” value was 146 min.

What follows are binders tested against T2, human Flag-tagged soluble TWEAK (amino …) (assay: receptor interaction ELISA: Flag-TWEAK preincubated with antibody, then on coated human Fn14:Fc (competitor m21)).
Protocol: as §1

B3 and B4 are within 1.5-fold of each other in IC50: 1.5 ng/mL for the first, 1.9 ng/mL for the second.

B5 and B6 are the same in IC50: 1.7 ng/mL for the first, 1.7 ng/mL for the second.

Compared with B7, B8 is 1.5-fold lower in IC50: 2.3 ng/mL for the first, 1.5 ng/mL for the second.

Work on B9 yielded an IC50 of 1.8 ng/mL.

Each binder was assayed against T4, Mouse soluble TWEAK (untagged, Example 5) (mouse, UniProt O54907 105-249, limits assumed) (assay: receptor interaction ELISA: mouse soluble TWEAK preincubated with antibody, then on coated mouse Fn14:Fc (competitor m22)).
T4 construct: also called Murine TWEAK
T4 sequence: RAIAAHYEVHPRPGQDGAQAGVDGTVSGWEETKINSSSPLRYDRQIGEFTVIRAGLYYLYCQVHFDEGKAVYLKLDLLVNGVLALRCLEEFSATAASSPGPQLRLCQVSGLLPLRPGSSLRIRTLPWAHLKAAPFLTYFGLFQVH
Protocol: Briefly, Maxisorp plates were coated with mouse Fn14:Fc (extracellular domain of mouse Fn14 (amino acids 1-75 of SEQ ID NO: 98) fused to Fc portion of human IgG1) as described above for human Fn14:Fc, followed by blocking and washing. […] After 1 h of incubation at room temperature and four washes, biotinylated anti-mouse TWEAK antibody at 125 ng/ml in blocking buffer was added for 1 h at room temperature, followed by another four wash steps. The TWEAK antibody was detected by incubation with streptavidin-HRP, diluted 1:5000 in blocking buffer, for 30 minutes at room temperature. Signal was developed and absorbance measured as described above.

B3 and B4 are within 1.5-fold of each other in IC50: 6.5 ng/mL for the first, 5.9 ng/mL for the second.

B5 and B6 are within 1.5-fold of each other in IC50: 7.1 ng/mL for the first, 6.7 ng/mL for the second.

B7 and B8 are within 1.5-fold of each other in IC50: 7.6 ng/mL for the first, 5.4 ng/mL for the second.

Work on B9 yielded an IC50 of 5.7 ng/mL.

Biological target: T1, Human recombinant soluble TWEAK …
Assay: cell-based or functional assay
Remark: another data set of the same source

With B10 the “Inhibition of IL-8 Secretion IC50 [ng/ml] (A375 cells)” value was 99 ng/mL.

Each binder was assayed against T5, Recombinant human TWEAK (R&D Systems; Cat. #1090-TW/CF) (human, UniProt O43508 97-249, limits assumed) (assay: cell-based or functional assay).
T5 sequence: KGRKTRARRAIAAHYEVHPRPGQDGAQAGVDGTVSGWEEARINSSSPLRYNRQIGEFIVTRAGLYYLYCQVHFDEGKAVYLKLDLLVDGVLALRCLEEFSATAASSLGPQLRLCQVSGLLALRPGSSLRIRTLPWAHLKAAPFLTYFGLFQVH

For B1, the “IC50 (nM) per valency, Tweak induced HFLS proliferation (CellTiter Glo)” value was 0.152 nM.

From patent US20150132307A1 (Hoffmann-La Roche, published 2015)
